Source: patent publication US20260139023A1 (Dana-Farber, published 2026)
Changes are numbered by the printed parent chain. Names and notes keep the numbering of the source. One block for each binder: values may come before it.

What was measured:
[1] = biological target: T1, recombinant human integrin αVβ5 ectodomain (human, UniProt P06756 32-991; P18084 24-717, glycosylated with heterogeneous glycans); test: fluorescence anisotropy competition: 50 nM A488-irisin-bac probe and 1000 nM αVβ5, unlabeled irisin-bac varied 0-4000 nM
T1 construct: range 32-991;range 24-717; Used in the solution assays (anisotropy, MST, HDX-MS, FRET); An introduced Cys and the rest of the HRV3C site would remain after cleavage; also called αVβ5 alone; αVβ5/Mn2+

[2] = biological target: T1, recombinant human integrin αVβ5 …; test: fluorescence anisotropy, A488-irisin-bac, varied αVβ5, 1 mM MnCl2 (FIG. 7D); direct binding, A488-irisin-bac (FIG. 7D)
[3] = biological target: T1, recombinant human integrin αVβ5 …; test: fluorescence anisotropy competition: 50 nM A488-irisin-WT probe and 1000 nM αVβ5, unlabeled irisin-WT varied 0-4000 nM
[4] = biological target: T1, recombinant human integrin αVβ5 …; test: fluorescence anisotropy, compared with irisin-mam on αVβ5
[5] = biological target: T1, recombinant human integrin αVβ5 …; test: fluorescence anisotropy competition, 50 nM A488-irisin-bac and 1000 nM αVβ5, varied unlabeled irisin-bac (FIG. 7E); competition, unlabeled irisin-bac vs A488-irisin-bac (FIG. 7E)
[6] = biological target: T1, recombinant human integrin αVβ5 …; test: fluorescence anisotropy competition, 50 nM A488-irisin-WT (bacterial) and 1000 nM αVβ5, varied unlabeled irisin-WT (FIG. 7F); competition, wild type bacterial dimer, run beside R75E (FIG. 7F)
[7] = biological target: T1, recombinant human integrin αVβ5 …; test: fluorescence anisotropy, A488-irisin-bac, αVβ5 varied 0-6000 nM, 1 mM MnCl2
[8] = biological target: T1, recombinant human integrin αVβ5 …; test: fluorescence anisotropy competition, 50 nM A488-irisin-WT (bacterial) and 1000 nM αVβ5, varied unlabeled irisin-R75E (FIG. 7F); competition, R75E monomer mutant (FIG. 7F)
[9] = biological target: T1, recombinant human integrin αVβ5 …; test: fluorescence anisotropy competition: 50 nM A488-irisin-WT probe and 1000 nM αVβ5, unlabeled irisin-R75E varied 0-4000 nM
[10] = biological target: T2, αVβ5/Hsp90α complex (reconstituted from recombinant human αVβ5 ectodomain and recombinant human Hsp90α) (human, UniProt P06756 32-991; P18084 24-717; P07900 2-732, glycosylated); test: fluorescence anisotropy competition: 50 nM A488-irisin-His probe and 125 nM αVβ5 (as αVβ5/Hsp90α complex), unlabeled irisin-His varied 0-6000 nM
T2 construct: range 32-991;range 24-717;mature; also called integrin/Hsp90α complex
Description: (§1) The domain boundaries are as follows: αV, 32-991; β5, 24-717.

[11] = biological target: T1, recombinant human integrin αVβ5 …; test: fluorescence anisotropy competition, 50 nM A488-irisin-bac and 1000 nM αVβ5, varied unlabeled irisin-mam (irisin-His) (FIG. 7E); competition, unlabeled irisin-mam vs A488-irisin-bac (FIG. 7E)
[12] = biological target: T1, recombinant human integrin αVβ5 …; test: fluorescence anisotropy binding assay with labelled irisin, αVβ5 varied 0-1000 nM as the positive curve beside the Hsp90α curves; buffer and activation state of αVβ5 not given in the legend
[13] = biological target: T2, αVβ5/Hsp90α complex (reconstituted from …); test: fluorescence anisotropy competition, 50 nM A488-irisin-His and 125 nM αVβ5/Hsp90α, varied unlabeled irisin-His (FIG. 1H)
Description: as §1

[14] = biological target: T1, recombinant human integrin αVβ5 …; test: fluorescence anisotropy competition: 50 nM A488-irisin-bac probe and 1000 nM αVβ5, unlabeled irisin-mam (irisin-His) varied 0-4000 nM
[15] = biological target: T1, recombinant human integrin αVβ5 …; test: fluorescence anisotropy, direct binding: labelled irisin WT with varied aVß5 concentration (0 to 1000 nM); black curve and black label
[16] = biological target: T2, αVβ5/Hsp90α complex (reconstituted from …); test: fluorescence anisotropy, 50 nM A488-irisin-His, varied αVβ5/Hsp90α complex, 1 mM MgCl2 and 1 mM CaCl2 (FIG. 1G)
Description: as §1

[17] = biological target: T2, αVβ5/Hsp90α complex (reconstituted from …); test: summary sentence of Example 2: αVβ5 receptor activated by eHsp90α; αVβ5 activated by eHsp90α; rounded summary value
[18] = biological target: T1, recombinant human integrin αVβ5 …; test: fluorescence anisotropy, 50 nM A488-irisin-His, αVβ5 in 1 mM MnCl2 (FIG. 4D)
[19] = biological target: T3, clasped and tagged αVβ5 (recombinant human αVβ5 ectodomain with C-terminal coiled-coil clasp and affinity … (human, UniProt P06756 32-991; P18084 24-717, glycosylated); test: BLI (Octet RED384), clasped and tagged αVβ5 on streptavidin sensors, 1 mM MgCl2 and 1 mM CaCl2; affinity-purified αVβ5 preparation that still held co-purified Hsp90α (FIG. 1B)
T3 construct: range 32-991;range 24-717; Used in BLI (streptavidin sensors) and TALON pull-downs; also called clasped αVβ5; immobilized clasped αVβ5; not shown: introduced Cys, HRV3C site, acidic α-helical coiled-coil and twin Strep-II tag; introduced Cys, HRV3C site, basic α-helical coiled-coil and 8xHis tag
Experimental: as §1
Biolayer Inferometry (BLI) measurements were conducted by Octet RED384. […] Data analysis HT software was used for the fitting and Kd calculations.

[20] = biological target: T2, αVβ5/Hsp90α complex (reconstituted from …); test: fluorescence anisotropy, 50 nM A488-irisin-His, αVβ5/Hsp90α complex in 1 mM MgCl2 and 1 mM CaCl2 (FIG. 4D)
[21] = biological target: T4, recombinant human Hsp90α (purified from E. coli, untagged) (human, UniProt P07900 2-732); test: fluorescence anisotropy binding assay with labelled irisin, Hsp90α without nucleotide or charged with ATP, AMP-PNP or ADP varied 0-2500 nM
T4 construct: mature; Tested as Apo and as ATP-, AMP-PNP- and ADP-charged forms; also called eHsp90α; Hsp90α-Apo

[22] = biological target: T2, αVβ5/Hsp90α complex (reconstituted from …); test: fluorescence anisotropy competition: unlabeled WT irisin (0 to 6000 nM) against the labelled WT irisin probe on the αVβ5/Hsp90 complex; black curve
[23] = biological target: T2, αVβ5/Hsp90α complex (reconstituted from …); test: fluorescence anisotropy competition, 50 nM A488-irisin-His and 125 nM αVβ5/Hsp90α, varied unlabeled untagged irisin (FIG. 1H)
Description: as §1

[24] = biological target: T2, αVβ5/Hsp90α complex (reconstituted from …); test: fluorescence anisotropy competition: 50 nM A488-irisin-His probe and 125 nM αVβ5 (as αVβ5/Hsp90α complex), unlabeled untagged irisin varied 0-6000 nM
Description: as §1

[25] = biological target: T1, recombinant human integrin αVβ5 …; test: fluorescence anisotropy, direct binding: labelled irisin N45Q with varied aVß5 concentration (0 to 1000 nM); grey curve and grey label
[26] = biological target: T2, αVβ5/Hsp90α complex (reconstituted from …); test: fluorescence anisotropy competition: unlabeled N45Q (0 to 6000 nM) against the labelled WT irisin probe on the αVβ5/Hsp90 complex; grey curve

B1: irisin-bac (non-glycosylated irisin dimer produced in bacteria) (ligand, UniProt Q8K4Z2 61-171, looked up)
chain: SPSAPVNVTVRHLKANSAVVSWDVLEDEVVIGFAISQQKKDVRMLRFIQEVNTTTRSCALWDLEEDTEYIVHVQAISIQGQSPASEPVLFKTPREAEKMASKNKDEVTMKE
modifications: Alexa Fluor 488 label where used as probe
notes: also called A488-irisin-bac
- IC50 [1]: 1190 nM
- Kd [2]: 256 nM
- IC50 [3]: 1270 nM
- fold weaker affinity than irisin-mam [4]: ~8 fold
- Kd [5]: 294 nM
- Kd [6]: 299 nM
- Kd [7]: 317 nM

B3: irisin-His (wild-type, glycosylated recombinant irisin, His tagged, from mammalian cells) (ligand)
chain: DSPSAPVNVTVRHLKANSAVVSWDVLEDEVVIGFAISQQKKDVRMLRFIQEVNTTTRSCALWDLEEDTEYIVHVQAISIQGQSPASEPVLFKTPREAEKMASKNKDEVTMKEHHHHHHHHHHRDPLEVLFQ
modifications: N-glycosylated at N36, N45 and N81 (numbers as printed); Alexa Fluor 488, 555 or 647 label where the assay says so
notes: Monomer by SEC-MALS; also called irisin-mam; A488-irisin-His
- IC50 [10]: 499 nM
- Kd [11]: 35 nM
- Kd [12]: 43 nM
- Kd [13]: 52 nM
- IC50 [14]: 165 nM
- Kd [15]: 6 nM
- Kd [16]: 31 nM
- Kd [17]: ~30 nM
- Kd [18]: 28 nM
- Kd [19]: 212 nM
- Kd [20]: 37 nM
- binding result [21]: no binding (tested: 2500 nM)

B4: untagged irisin (wild-type, glycosylated recombinant irisin from mammalian cells) (ligand)
chain: DSPSAPVNVTVRHLKANSAVVSWDVLEDEVVIGFAISQQKKDVRMLRFIQEVNTTTRSCALWDLEEDTEYIVHVQAISIQGQSPASEPVLFKTPREAEKMASKNKDEVTMKE
modifications: N-glycosylated at N36, N45 and N81 (numbers as printed)
notes: also called unlabeled and untagged irisin; WT irisin
- IC50 [22]: 440 nM
- Ki [22]: 56 nM
- Kd [23]: 50 nM
- IC50 [24]: 477 nM

Results, then the binder that gave them:

- Kd [8]: 42 nM
- IC50 [9]: 198 nM
B2: irisin-R75E (non-glycosylated irisin monomer mutant R75E from bacteria) (ligand, UniProt Q8K4Z2-1 30-140, looked up)
chain: B1 chain with R46E
notes: also called monomeric mutant

- Kd [25]: 32 nM
- IC50 [26]: 35 nM
- Ki [26]: 9 nM
B5: irisin N45Q mutant (irisin glycosylation mutant, recombinant, from mammalian Expi293 cells) (ligand)
chain: B4 chain with N17Q
modifications: glycosylated at positions 36 and 81; position 45 is Q, not N-glycosylated
